In the first assay the target is T1, enzyme I (phosphoenolpyruvate-protein-phosphatase, EC 2.7.3.9) of the bacterial phosphotransferase system (E. coli, UniProt P08839 1-575). Description: cell-based or functional assay.
KKFHLRK [peptide 1]: the “inhibition IC50 (µM) of in vitro phosphotransferase activity” value (shortened to “inhibition IC50 (µM)”) is 25 µM and the “uncoupling P1/peptide (x IC50/h)” value stood at 3.2 x IC50/h.
WHKR [peptide 13]: the “inhibition IC50 (µM)” value turned out to be 500 µM.
As for GLRFGKTRVHYLVLG [peptide 14], the “inhibition IC50 (µM)” value amounted to 650 µM.
Turning to KKWHKRKK [peptide 8], the “inhibition IC50 (µM)” value was 375 µM and the “uncoupling P1/peptide (x IC50/h)” value worked out at 64.2 x IC50/h.
Consider KKFALRK [peptide 2], for which the “inhibition IC50 (µM)” value was 60 µM and the “uncoupling P1/peptide (x IC50/h)” value came to 6.6 x IC50/h.
On to WHKR [peptide 12], for which the “inhibition IC50 (µM)” value came out at 410 µM.
Take SGRKSTRVHHWLLVL [peptide 15]: the “inhibition IC50 (µM)” value was 1380 µM.
KKFHIRKR [peptide 9]: the “inhibition IC50 (µM)” value is 1200 µM and the “uncoupling P1/peptide (x IC50/h)” value is 132 x IC50/h.

A further assay deals with T1, enzyme I …. Description: cell-based or functional assay. This is another data set of the same source.
MRLLKTLCFGLCG [peptide 31]: the “inhibition IC50” value amounted to 4900 µM.
In the case of RHYLLF [peptide 26], the “inhibition IC50” value worked out at 300 µM and the “uncoupling P1/peptide/h” value is 0.29 P1/peptide/h.
The corresponding values for DGARLHYLF [peptide 22] are 820 µM and 0.05 P1/peptide/h.
The corresponding values for RHRTLF [peptide 25] are 530 µM and 0.23 P1/peptide/h.
RHITSL [peptide 27]: the “inhibition IC50” value was found to be 440 µM and the “uncoupling P1/peptide/h” value was determined as 0.215 P1/peptide/h.
As for SSLRGHRWVY [peptide 17], the “uncoupling P1/peptide/h” value amounted to 0.07 P1/peptide/h.
Regarding RHITLF [peptide 28], the “inhibition IC50” value turned out to be 160 µM and the “uncoupling P1/peptide/h” value worked out at 0.31 P1/peptide/h.

The record behind these values is patent publication US6777176 (ARPIDA, dated 2004).
